Numbered stars: 1 amine (or outer) side, 2 acyl side, 3 side chain; on linkers, the order of the positions; unused ones are H or OH. Bridge positions count the residues as written; N and C are the ends. Square brackets hold non-standard residues; d marks the D form. Peptide text beside a SMILES is read from it. * marks the point of attachment. X1 = COc1cc2cc(c1Cl)N(C)C(=O)C[C@H](OC(=O)[C@H](C)N(C)C(=O)CCSSC(C)CCC(=O)*)[C@]1(C)O[C@H]1[C@H](C)[C@@H]1C[C@@](O)(NC(=O)O1)[C@H](OC)/C=C/C=C(\C)C2; 1Nal = N[C@@H](Cc1cccc2ccccc12)C(=O)O; TBMB = c1c(C[*:1])cc(C[*:3])cc1C[*:2]; Tle = CC(C)(C)[C@H](N)C(=O)O; βAla = NCCC(=O)O; Sar = CNCC(=O)O
How the values were obtained:
[1] = biological target: hemopexin domain of MT1-MMP (Homo sapiens, UniProt P50281); assay: Binding to hemopexin domain of MT1-MMP
Protocol: Bicycle drug conjugates (BDCs) with a variety of linkers and cytotoxic payloads were prepared which retained binding to MT1.
BT1718 is a BDC that binds to MT1-MMP and upon cleavage of its disulphide linker, releases the cytotoxic tubulin inhibitor, DM1 (also referred to as DM1-SH).

[2] = Intrinsic clearance in cryopreserved hepatocytes; format: in vitro ADME
Protocol: Accumulation of the majority of the radioactivity was found in the kidney and bladder irrespective of the labelled peptide dose; this is indicative of either non-saturable excretion or proteolysis followed by excretion through the kidneys. Furthermore, the intrinsic clearance of BT1718 and its Bicycle component, N241 was low when measured in cryopreserved hepatocytes. […] Unconjugated DM1, when radiolabelled, (as [[^3H]-DM1 (91 μCi/kg, 200 μg/kg, IV), was reported to distribute rapidly and extensively to the lungs, liver, kidney, spleen, heart, gastrointestinal tract, and adrenal glands in the rat. The major route of excretion of DM1 was through the bile/faeces, with a minimal amount excreted in the urine, a completely different distribution to BT1718 and its metabolites with little and short lived accumulation seen in other organs such as heart, liver, GI and lungs which would imply that these organs maybe spared systemic toxicity.

EBC-1 xenograft = assay: Dosing schedule experiment in EBC-1 xenograft mice; details: 60 mg/m^2 once weekly
Protocol: Anti-tumor activity was compared when equivalent total weekly doses were administered either once, twice or three times weekly or once daily.

[3] = Crl:WI(Han) rat non-GLP tox study toxicokinetics; format: in vivo, Crl: WI(Han) rats; details: male, plasma, iv
[4] = Preclinical PK and toxicokinetics, summary across studies; set-up: species or system mice and rats; details: mouse and rat, in vivo, intravenous, read-out: half-life estimate
From the text: BT1718 has low molecular weight (3.5 kDA) in comparison to other conjugated toxin approaches, which enables rapid penetration of tumor tissue. […] Hypothesized advantages over ADCs therefore include reduced systemic exposure of normal tissues to circulating BT1718, the ability to manage toxicity during recovery periods, as well as the improved tumor penetrance. Other potential advantages include a fixed peptide:conjugate ratio of 1:1 (c.f. ADCs where variable conjugation results in mixed populations) and with more scalable manufacturing as a small molecule (c.f. biologics such as ADCs).

[5] = Stability in plasma in vitro, dog; format: in vitro ADME; details: 37° C.
Protocol: The stability of BT1718 was assessed in plasma and whole blood from humans, monkey, dog, mouse and rat. […] The mechanism for the difference in stability of the BT1718 peptide in whole blood between the different species is unknown.

[6] = CD1 mouse dose response PK study
advanced solid tumors = assay: Phase I/IIa trial of BT1718 in patients with advanced solid tumors: safety and efficacy; format: in vivo
From the text: This is a multi-center, FIH, Phase I/IIa, open label dose escalation trial with an expansion phase, in patients with advanced solid tumors.
A DLT is defined as a probably or highly probably drug-related AE occurring during Cycle 1 (i.e. the first 28 days) which fulfils one or more of the following criteria, despite appropriate supportive clinical management (however, all clinically significant toxicities will be considered in dose review decisions and the determination of the Phase II dose): • Neutropenia Grade 4 (absolute neutrophil count [ANC]<0.5×10^9/L) for ≥seven days *see note; • Febrile neutropenia with Grade 3 or 4 neutropenia ANC <1.0×10^9/L and a single temperature of […] or a sustained temperature ≥38° C. for more than one hour); • Clinically significant infection (documented clinically or microbiologically) with Grade 3 or 4 neutropenia (ANC <1.0×10^9/L); • Thrombocytopenia Grade 4: a) for ≥five days *see note, or b) associated with active bleeding, or c) requiring platelet transfusion. • Grade 3 or 4 toxicity to organs other than the bone marrow, EXCLUDING: Grade 3 nausea; • Grade 3 or 4 vomiting in patients who have not received optimal treatment with anti-emetics; or • Grade 3 or 4 diarrhoea in patients who have not received optimal treatment with anti-diarrhoeals. • Transient, asymptomatic Grade 3 biochemical abnormalities if agreed by the Sponsor and the Study Team, including the Chief Investigator (CI). • Fatal event; • Any other related toxicity which leads to discontinuation of treatment in Cycle 1, or to a delay in dosing of >7 days (excluding where the delay is >7 days due to scheduling rather than a clinical decision); • Any other related toxicity that is greater than at baseline and is judged to be a DLT by the Sponsor, including the CI and Principal Investigators (PIs).
Definitions of disease status is in accordance with RECIST (Response Evaluation Criteria in Solid Tumors) 1.1, based on documentation of target and non-target lesions as specified in the BT1718 study protocol. All clinical measurements to assess response must be performed within one week of the first dose of BT1718.
An open label, first in human phase Ulla study of once-weekly (QW) and twice-weekly (BIW) dosing schedules in patients with advanced solid tumours was undertaken.
4-week cycle: 1 hour intravenous (IV) infusions for 3 weeks, followed by a 1 week break.

[7] = male, CD1, mouse, plasma, iv, 15 mg/m2
[8] = male, CD1, mouse, plasma, iv, 30 mg/m2
[9] = male, CD1, mouse, plasma, iv, 60 mg/m2

Q: Which Ki [1] does the source give for `COc1cc2cc(c1Cl)N(C)C(=O)C[C@H](OC(=O)[C@H](C)N(C)C(=O)CCSSC(C)CCC(=O)NCCC(=O)N(C)CC(=O)N(C)CC(=O)N(C)CC(=O)N(C)CC(=O)N(C)CC(=O)N(C)CC(=O)N(C)CC(=O)N(C)CC(=O)N(C)CC(=O)N(C)CC(=O)N[C@@H](C)C(=O)N[C@H]1CSCc3cc4cc(c3)CSC[C@H](NC(=O)[C@@H](C)NC(=O)[C@H](Cc3cccc5ccccc35)NC(=O)[C@H](CCC(=O)O)NC(=O)[C@H](CC(N)=O)NC(=O)[C@@H](C)NC1=O)C(=O)N[C@@H](CCC(=O)O)C(=O)N[C@@H](CC(=O)O)C(=O)N[C@@H](Cc1ccccc1)C(=O)N[C@@H](Cc1ccc(O)cc1)C(=O)N[C@@H](CC(=O)O)C(=O)N[C@@H](C(C)(C)C)C(=O)N[C@H](C(N)=O)CSC4)[C@]1(C)O[C@H]1[C@H](C)[C@@H]1C[C@@](O)(NC(=O)O1)[C@H](OC)/C=C/C=C(\C)C2` (stereo partly shown) [BT1718] ({X1-βAla}-[Sar][Sar][Sar][Sar][Sar][Sar][Sar][Sar][Sar][Sar]AC[dA]NE[1Nal][dA]CEDFYD[Tle]C-NH2; linker 12-18-25 via TBMB (inferred)) here?
A: 1.75 ± 0.92 nM

Q: What about the intrinsic clearance [2] of the same compound?
A: low

Q: What about the weight loss (EBC-1 xenograft) of the same compound?
A: > 10%

Q: What about the Cmax ([3]; 1.2 mg/m2, read-out: C0/Cmax) of the same compound?
A: 0.1 ± 0.01 µM

Q: And the Cmax ([3]; 6 mg/m2, read-out: C0/Cmax)?
A: 0.4 ± 0.14 µM

Q: And the half-life [4]?
A: 15 to 30 min

Q: What about the half-life [5] of the same compound?
A: > 360 min

Q: What about the AUC ([6]; CD1, mouse, plasma, intravenous, 10 mg/kg) of the same compound?
A: 5.3 µM·h

Q: What about the AUC ([6]; CD1 mouse, male, 30 mg/m^2 IV) of the same compound?
A: 5.3

Q: What about the AUC ([6]; CD1 mouse, male, 60 mg/m^2 IV) of the same compound?
A: 11.6

Q: And the AUC ([6]; male, CD1, mouse, plasma, intravenous, 20 mg/kg)?
A: 11.6 µM·h

Q: What about the AUC [6, 7] of the same compound?
A: 2.8 µM·h

Q: What about the Cmax [6, 7] of the same compound?
A: 9.3 µM

Q: And the Vd [6, 7]?
A: 0.2 L/kg

Q: What about the clearance [6, 7] of the same compound?
A: 8.4 mL/min/kg

Q: What about the half-life [6, 7] of the same compound?
A: 19.8 min

Q: And the Cmax ([6]; male, CD1, mouse, plasma, iv, 20 mg/kg)?
A: 38.2 µM

Q: And the Vd [6, 8]?
A: 0.27 L/kg

Q: What about the clearance [6, 8] of the same compound?
A: 9 mL/min/kg

Q: And the half-life [6, 8]?
A: 20.4 min

Q: And the Vd [6, 9]?
A: 0.22 L/kg

Q: What about the clearance [6, 9] of the same compound?
A: 8.2 mL/min/kg

Q: And the half-life [6, 9]?
A: 20.4 min

Q: What about the DLTs (advanced solid tumors; 9.6 mg/m^2 BIW (cohort 5)) of the same compound?
A: 2×DLTs (GGT, fatigue) and increased GGT (grade 4) and fatigue (grade 3)

Q: What about the “Drug-related Alanine aminotransferase increased, number of patients, n = 28 (frequency)” value (advanced solid tumors; human, in vivo) of the same compound?
A: 8 (28.6%)

Q: What about the “Drug-related Anaemia, number of patients, n = 28 (frequency)” value (advanced solid tumors; human, in vivo) of the same compound?
A: 7 (25.0%)

Q: And the “Drug-related Aspartate aminotransferase increased, number of patients, n = 28 (frequency)” value (advanced solid tumors; human, in vivo)?
A: 9 (32.1%)

Q: What about the “Drug-related Blood alkaline phosphatase increased, number of patients, n = 28 (frequency)” value (advanced solid tumors; human, in vivo) of the same compound?
A: 5 (17.9%)

Q: And the “Drug-related Decreased appetite, number of patients, n = 28 (frequency)” value (advanced solid tumors; human, in vivo)?
A: 9 (32.1%)

Q: And the “Drug-related Diarrhea, number of patients, n = 28 (frequency)” value (advanced solid tumors; human, in vivo)?
A: 10 (35.7%)

Q: And the “Drug-related Fatigue, number of patients, n = 28 (frequency)” value (advanced solid tumors; human, in vivo)?
A: 9 (32.1%)

Q: What about the “Drug-related Gamma-glutamyltransferase increased, number of patients, n = 28 (frequency)” value (advanced solid tumors; human, in vivo) of the same compound?
A: 5 (17.9%)

Q: What about the “Drug-related Lethargy, number of patients, n = 28 (frequency)” value (advanced solid tumors; human, in vivo) of the same compound?
A: 6 (21.4%)

Q: And the “Drug-related Nausea, number of patients, n = 28 (frequency)” value (advanced solid tumors; human, in vivo)?
A: 12 (42.9%)

Q: What about the “Drug-related Neuropathy peripheral, number of patients, n = 28 (frequency)” value (advanced solid tumors; human, in vivo) of the same compound?
A: 9 (32.1%)

Q: And the “Drug-related Vomiting, number of patients, n = 28 (frequency)” value (advanced solid tumors; human, in vivo)?
A: 9 (32.1%)

Q: What about the “Grade 1-2 related peripheral neuropathy” value (advanced solid tumors; human, in vivo) of the same compound?
A: occurred more commonly with increasing dose

Q: What about the “RP2D for twice weekly dosing” value (advanced solid tumors; human, in vivo) of the same compound?
A: 7.2 mg/m^2

Q: What about the “patients with related grade 1-3 gastrointestinal disorders” value (advanced solid tumors; including nausea, diarrhea and vomiting) of the same compound?
A: 18/28

Q: And the tolerability (advanced solid tumors; once weekly dosing, dose levels tested)?
A: tolerable
